We go through four molecules from PMC8809517, “Cofactor-independent RNA editing by a synthetic S-type PPR protein”.

Where a chain is given by its changes, count along the chain named.

Holding throughout (test): high-throughput RNA pulldown from lysate on Ni-NTA beads; HRP: 50 mM Tris pH 8, 150 mM NaCl, 1 mM beta-mercaptoethanol, 50 ug/ml BSA, 3 ug/ml yeast RNA, 0.5% heparin; ITC and FP: Tris pH 8, 200 mM KCl, 5% glycerol; MST: 50 mM Tris pH 8, 200 mM NaCl, 1 mM DTT, BSA, heparin, 0.05% Tween 20
Details in all cases: tags: N-terminal His-eGFP

Data set [1] concerns the target T1, GFP-9S library array, motif 4 ND N98C (synthetic construct, N98C).
T1 chain: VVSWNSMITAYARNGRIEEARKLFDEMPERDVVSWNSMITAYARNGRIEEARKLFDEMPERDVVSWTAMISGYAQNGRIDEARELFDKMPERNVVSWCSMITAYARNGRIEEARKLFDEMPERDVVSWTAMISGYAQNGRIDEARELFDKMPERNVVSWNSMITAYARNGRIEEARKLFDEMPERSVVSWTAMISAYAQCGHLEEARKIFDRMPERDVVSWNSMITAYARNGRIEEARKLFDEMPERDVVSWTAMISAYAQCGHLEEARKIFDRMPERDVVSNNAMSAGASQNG

Data set [2] has as its target T2, GFP-9S library array, motif 4 ND N98Y;D124S (synthetic construct, N98Y;D124S).
T2 chain: T1 chain with C98Y, D124S

The target of data set [3] is T3, GFP-9S library array, motif 4 ND N98C;D124E (synthetic construct, N98C;D124E).
T3 chain: T1 chain with D124E

Data set [4] deals with T4, GFP-9S library array, motif 4 ND N98G;D124Q (synthetic construct, N98G;D124Q).
T4 chain: T1 chain with C98G, D124Q

Data set [5] deals with T5, GFP-9S library array, motif 4 ND N98W;D124M (synthetic construct, N98W;D124M).
T5 chain: T1 chain with C98W, D124M

As usually defined, the Kd is the constant that tells how readily two partners part at equilibrium. High values mean weaker binding, low ones tighter binding. In the case of AUUACACGUGA (ssRNA) [Cy5-rpoA], the Kd in data set [1] (label: 5' Cy5) is 491 nM; in data set [2] (label: 5' Cy5), 168 nM; in data set [3] (label: 5' Cy5) it was 503 nM; in data set [4] (label: 5' Cy5), 96.6 nM; in data set [5] (label: 5' Cy5), 96.1 nM.

For the molecule AUUAAACGUGA (ssRNA) [IR-rpoA-A], the Kd was 1290 nM in data set [1] (label: 5' IRDye 800CW); 911 nM in data set [2] (label: 5' IRDye 800CW); 146 nM in data set [3] (label: 5' IRDye 800CW); 150 nM in data set [4] (label: 5' IRDye 800CW); 235 nM in data set [5] (label: 5' IRDye 800CW).

As to AUUAUACGUGA (ssRNA) [IR-rpoA-U], the Kd in data set [1] (label: 5' IRDye 800CW) worked out at 651 nM; in data set [2] (label: 5' IRDye 800CW) it was 134 nM; in data set [3] (label: 5' IRDye 800CW), 170 nM; in data set [4] (label: 5' IRDye 800CW), 142 nM; in data set [5] (label: 5' IRDye 800CW), 175 nM.

As to AUUAGACGUGA (ssRNA) [Cy5-rpoA-G], the Kd in data set [1] (label: 5' Cy5) came out at 620 nM; in data set [2] (label: 5' Cy5) it was 224 nM; in data set [3] (label: 5' Cy5) it was 39.5 nM; in data set [4] (label: 5' Cy5), 109 nM; in data set [5] (label: 5' Cy5), 102 nM.
